Earlier results in publication PMC9960319.

Molecular target: intermediate-affinity IL-2 receptor (Homo sapiens) (UniProt P14784)
Chain of UniProt P14784 (P14784 27-240, chain 1 of 2): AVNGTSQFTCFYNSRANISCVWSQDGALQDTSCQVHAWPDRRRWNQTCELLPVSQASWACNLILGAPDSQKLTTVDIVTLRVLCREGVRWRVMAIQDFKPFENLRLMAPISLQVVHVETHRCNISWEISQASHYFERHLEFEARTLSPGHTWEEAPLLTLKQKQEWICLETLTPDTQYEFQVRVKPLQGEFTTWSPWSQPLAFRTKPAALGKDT
Chain of UniProt P14784 (P31785 23-262, chain 2 of 2, further chain): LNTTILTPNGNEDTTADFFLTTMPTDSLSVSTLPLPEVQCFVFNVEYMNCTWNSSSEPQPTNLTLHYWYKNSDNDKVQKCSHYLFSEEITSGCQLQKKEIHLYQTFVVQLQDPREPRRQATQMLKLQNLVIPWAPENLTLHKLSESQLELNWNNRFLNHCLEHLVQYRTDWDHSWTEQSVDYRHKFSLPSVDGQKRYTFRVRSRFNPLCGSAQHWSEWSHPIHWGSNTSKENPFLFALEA

With IL-2 moiety (from UniProt P60568) as the substance, how does the Kd read?
The Kd was 40 nM.
